Source: patent publication US20240309103A1 (Regeneron, published 2024)

Legend:
[1] = biological target: T1, mfNPR1-mFc (monkey); assay: SPR, mAb captured, 37C
T1 construct: also called dimeric monkey NPR1
T1 chain: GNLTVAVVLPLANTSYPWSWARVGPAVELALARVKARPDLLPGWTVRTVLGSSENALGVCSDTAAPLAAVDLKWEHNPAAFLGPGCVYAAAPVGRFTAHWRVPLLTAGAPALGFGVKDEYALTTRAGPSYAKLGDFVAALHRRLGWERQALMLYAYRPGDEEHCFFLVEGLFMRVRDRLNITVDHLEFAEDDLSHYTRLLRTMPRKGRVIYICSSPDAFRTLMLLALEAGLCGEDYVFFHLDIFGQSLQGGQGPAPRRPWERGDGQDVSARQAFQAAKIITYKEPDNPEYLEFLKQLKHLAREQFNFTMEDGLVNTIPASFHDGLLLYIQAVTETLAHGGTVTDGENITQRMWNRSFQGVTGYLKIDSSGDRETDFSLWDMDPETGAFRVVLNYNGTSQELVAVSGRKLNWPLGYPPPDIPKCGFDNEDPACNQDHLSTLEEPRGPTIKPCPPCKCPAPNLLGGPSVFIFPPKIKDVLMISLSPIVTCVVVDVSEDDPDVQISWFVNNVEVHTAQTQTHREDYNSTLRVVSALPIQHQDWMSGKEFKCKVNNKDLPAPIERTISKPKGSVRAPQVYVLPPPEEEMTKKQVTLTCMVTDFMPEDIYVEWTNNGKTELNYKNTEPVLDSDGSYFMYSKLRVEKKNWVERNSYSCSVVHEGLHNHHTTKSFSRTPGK
Description: (§1) Equilibrium dissociation constant (KD) for different NPR1 reagents binding to purified anti-NPR1 monoclonal antibodies (mAbs) were determined using a real-time surface plasmon resonance based Biacore 4000 biosensor. All binding studies were performed in 10 mM HEPES, 150 mM NaCl, 3 mM EDTA, and 0.05% v/v Surfactant Tween-20, pH 7.4 (HBS-ET) running buffer at 25° C. and 37° C. The Biacore CM5 sensor chip surface was first derivatized by amine coupling with either mouse anti-human Fc specific mAb (GE Healthcare, #BR100839) or goat anti-human Fcy specific polyclonal antibody (Jackson ImmunoResearch Laboratories, #BR-1008-39) to capture anti-NPR1 mAbs.

[2] = biological target: T2, hNPR1-mFc:hBNP complex (human, UniProt P16860 103-134); assay: SPR, mAb captured, 37C
T2 construct: also called human NPR1 complexed to BNP
Description: as §1

[3] = biological target: T3, mfNPR1-mFc:hANP complex (monkey; human, UniProt P01160 124-151); assay: SPR, mAb captured, 37C
T3 construct: also called monkey NPR1 complexed to ANP
Description: as §1

[4] = biological target: T4, hNPR1-mFc:hANP or hNPR1-hFc:hANP complex (human, UniProt P01160 124-151); assay: SPR, mAb captured, 37C
T4 construct: also called human NPR1 complexed to ANP
Description: as §1

[5] = biological target: T1, mfNPR1-mFc; assay: SPR, mAb captured, 25C
Description: as §1

[6] = biological target: T2, hNPR1-mFc:hBNP complex; assay: SPR, mAb captured, 25C
Description: as §1

[7] = biological target: T3, mfNPR1-mFc:hANP complex; assay: SPR, mAb captured, 25C
Description: as §1

[8] = biological target: T5, mfNPR1-mFc:hBNP complex (monkey; human, UniProt P16860 103-134); assay: SPR, mAb captured, 25C
T5 construct: also called monkey NPR1 complexed to BNP
Description: as §1

[9] = biological target: T4, hNPR1-mFc:hANP or hNPR1-hFc:hANP complex; assay: SPR, mAb captured, 25C
Description: as §1

B1: mAb25479 (antibody, human IgG4, V domains shown)
VH: QVQLVQSGAEVKKPGASVKVSCKASGYTFTGYYIHWVRQAPGQGLEWMGWINPNSIGTNYAQKFQGRVTLTRDTSISTAYMELSSLRSDDTAVYYCARGGSSSYYYYYYGMDVWGQGTTVTVSS
VL: DIQMTQSPSSLSASVGDRVTITCRASQSIDNYLNWYQQKPGKAPKLLIYVASSLQSGVPSRFSGSGSGTDFTLTISSLQPEDFATYYCQQSYSTPLTFGGGTKVEIK
Q: How did the “100 nM Ag Bound (RU)” value [1] turn out when B1 was run?
A: 89 RU

Q: And the Kd [1]?
A: 28.1 nM

Q: What about the koff [1] of the same binder?
A: 0.00108 s⁻¹

Q: What about the kon [1] of the same binder?
A: 38200 M⁻¹ s⁻¹

Q: And the t½ [1]?
A: 0.178 h

Q: And the “100 nM Ag Bound (RU)” value [2]?
A: 85 RU

Q: What about the Kd [2] of the same binder?
A: 3.83 nM

Q: What about the koff [2] of the same binder?
A: 0.000163 s⁻¹

Q: What about the kon [2] of the same binder?
A: 42700 M⁻¹ s⁻¹

Q: What about the t½ [2] of the same binder?
A: 1.18 h

Q: What about the “100 nM Ag Bound (RU)” value [3] of the same binder?
A: 138 RU

Q: What about the Kd [3] of the same binder?
A: 4 nM

Q: And the koff [3]?
A: 0.000219 s⁻¹

Q: And the kon [3]?
A: 54700 M⁻¹ s⁻¹

Q: What about the t½ [3] of the same binder?
A: 0.88 h

Q: What about the “100 nM Ag Bound (RU)” value [4] of the same binder?
A: 84 RU

Q: And the Kd [4]?
A: 2.7 nM

Q: And the koff [4]?
A: 0.000134 s⁻¹

Q: And the kon [4]?
A: 49700 M⁻¹ s⁻¹

Q: What about the t½ [4] of the same binder?
A: 1.43 h

Q: What about the “100 nM Ag Bound (RU)” value [5] of the same binder?
A: 54 RU

Q: And the Kd [5]?
A: 16.2 nM

Q: What about the koff [5] of the same binder?
A: 0.000507 s⁻¹

Q: What about the kon [5] of the same binder?
A: 31200 M⁻¹ s⁻¹

Q: And the t½ [5]?
A: 0.38 h

Q: What about the “100 nM Ag Bound (RU)” value [6] of the same binder?
A: 50 RU

Q: And the Kd [6]?
A: 4.21 nM

Q: And the koff [6]?
A: 0.000123 s⁻¹

Q: And the kon [6]?
A: 29200 M⁻¹ s⁻¹

Q: And the t½ [6]?
A: 1.57 h

Q: And the “100 nM Ag Bound (RU)” value [7]?
A: 86 RU

Q: And the Kd [7]?
A: 2.44 nM

Q: And the koff [7]?
A: 0.000103 s⁻¹

Q: And the kon [7]?
A: 42000 M⁻¹ s⁻¹

Q: What about the t½ [7] of the same binder?
A: 1.88 h

Q: What about the “100 nM Ag Bound (RU)” value [8] of the same binder?
A: 86 RU

Q: What about the Kd [8] of the same binder?
A: 2.95 nM

Q: What about the koff [8] of the same binder?
A: 0.000113 s⁻¹

Q: What about the kon [8] of the same binder?
A: 38100 M⁻¹ s⁻¹

Q: And the t½ [8]?
A: 1.71 h

Q: What about the “100 nM Ag Bound (RU)” value [9] of the same binder?
A: 49 RU

Q: What about the Kd [9] of the same binder?
A: 3.53 nM

Q: What about the koff [9] of the same binder?
A: 0.000109 s⁻¹

Q: What about the kon [9] of the same binder?
A: 31000 M⁻¹ s⁻¹

Q: And the t½ [9]?
A: 1.76 h

B2: mAb22035 (antibody, human IgG4, V domains shown)
VH: EVQLVESGGGLVQPGRSLRLSCAASGFTFDDYAMHWVRQAPGKGLEWVSGISWNSGTIGYADSVKGRFTMSRDNAKNSLYLQMNSLRPEDTALYYCAKDMGVSLALWGAFDIWGQGTMVTVSS
VL: DIQMTQSPSSLSASVGDKVTITCRASQNIRTYLNWYQQKPGKAPKVLISTASSLQSGVPSRFSGSGSGTDFTLTISSLQPEDFAVFYCQQSFGIPRTFGQGTKVEIK
Q: With B2 as the binder, how does the “100 nM Ag Bound (RU)” value [1] read?
A: 291 RU

Q: What about the Kd [1] of the same binder?
A: 0.184 nM

Q: What about the koff [1] of the same binder?
A: 8.44e-05 s⁻¹

Q: What about the kon [1] of the same binder?
A: 459000 M⁻¹ s⁻¹

Q: And the t½ [1]?
A: 2.28 h

Q: What about the “100 nM Ag Bound (RU)” value [2] of the same binder?
A: 243 RU

Q: And the Kd [2]?
A: 0.553 nM

Q: What about the koff [2] of the same binder?
A: 0.000128 s⁻¹

Q: What about the kon [2] of the same binder?
A: 232000 M⁻¹ s⁻¹

Q: And the t½ [2]?
A: 1.5 h

Q: What about the “100 nM Ag Bound (RU)” value [3] of the same binder?
A: 283 RU

Q: What about the Kd [3] of the same binder?
A: 0.302 nM

Q: What about the koff [3] of the same binder?
A: 7.7e-05 s⁻¹

Q: What about the kon [3] of the same binder?
A: 255000 M⁻¹ s⁻¹

Q: And the t½ [3]?
A: 2.5 h

Q: And the “100 nM Ag Bound (RU)” value [4]?
A: 237 RU

Q: What about the Kd [4] of the same binder?
A: 0.508 nM

Q: What about the koff [4] of the same binder?
A: 0.000114 s⁻¹

Q: What about the kon [4] of the same binder?
A: 225000 M⁻¹ s⁻¹

Q: What about the t½ [4] of the same binder?
A: 1.68 h

Q: And the “100 nM Ag Bound (RU)” value [5]?
A: 231 RU

Q: What about the Kd [5] of the same binder?
A: 0.229 nM

Q: And the koff [5]?
A: 5.57e-05 s⁻¹

Q: And the kon [5]?
A: 244000 M⁻¹ s⁻¹

Q: And the t½ [5]?
A: 3.45 h

Q: What about the “100 nM Ag Bound (RU)” value [6] of the same binder?
A: 194 RU

Q: What about the Kd [6] of the same binder?
A: 0.508 nM

Q: And the koff [6]?
A: 8.7e-05 s⁻¹

Q: What about the kon [6] of the same binder?
A: 171000 M⁻¹ s⁻¹

Q: And the t½ [6]?
A: 2.21 h

Q: And the “100 nM Ag Bound (RU)” value [7]?
A: 227 RU

Q: And the Kd [7]?
A: 0.246 nM

Q: And the koff [7]?
A: 4.66e-05 s⁻¹

Q: What about the kon [7] of the same binder?
A: 189000 M⁻¹ s⁻¹

Q: And the t½ [7]?
A: 4.13 h

Q: And the “100 nM Ag Bound (RU)” value [8]?
A: 231 RU

Q: What about the Kd [8] of the same binder?
A: 0.3 nM

Q: And the koff [8]?
A: 6.13e-05 s⁻¹

Q: What about the kon [8] of the same binder?
A: 205000 M⁻¹ s⁻¹

Q: And the t½ [8]?
A: 3.14 h

Q: And the “100 nM Ag Bound (RU)” value [9]?
A: 186 RU

Q: What about the Kd [9] of the same binder?
A: 0.434 nM

Q: And the koff [9]?
A: 7.78e-05 s⁻¹

Q: What about the kon [9] of the same binder?
A: 179000 M⁻¹ s⁻¹

Q: What about the t½ [9] of the same binder?
A: 2.47 h
